Test results published in a protein production outcome set (Wang et al. 2014).
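Further: failed if final PepcDB status was selected cloned or expressed and not failed if soluble or beyond.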

Assay: label from the status in PepcDB records
In the case of “MDTKTKRGFWIGINYSKTNLSLITASAILSIAFYLIYYNTKKTVAAVLFLALAIGAAFFFIKPIVDRDNKKNDINSNIPFFITAFSSLVTSDANIIDVLILLSKKEKLGYLRVEIEKILNLVKNWGMGLAEAINFVAKKTPSDLFSDFLTRFSHAIDSGQDLEEFTRSEVFSTMNSFETAYVSALYSFDLYRDIYVSLLLSFAFLITFIMIMPILIPINVFSVLMLSLIMVALGEFMLVYGISIVLPKDPLWHRTGIKTDTDIKMRNLFLISGTFSMMIFIVIDVMKIMFRIPFYFSFALIVTPLAYPSYVGTKMEREVQKKDEMYGSFIRSLSGSASARGNLLIDALKAIVMHDFGILSKDVNKLYRRLLYRINSLKAWKMFSADTGSHLIEIYSETYAESIDLGADALKSGMVISENFEKIVGLRKRKHSSVTSFVGIMYGITAGLAFSLAISYGILKIIDGIFSSFNLSSLGMTGIFLSPPSSSIFLIEIFLLIILFVHSFIGGISLKVSDGGRIINGLHHTVLMIWIVSFVVYGTMYITTILLGSTVS”, the protein production is reported as “failed”. With “MDTLAYLHLAETYETSTTDESSPEIPWTKNQSSALMLVASFAMGSLNWCLPTVAALKKGHRNPQVASLQQKLRASGYFPQVATGYFGSVTEAAVKRFQQANGLKADGIVGAATLAALESSIGVSESSITDPQIATSKSSLKQGDISDRVMSLQEKLQADGYYQGAITGNFDAATQAAVIQFQQANRLVVDGIVGPQTSSVLASSTRKLAASLPQKTTLEPFLTQQPQNQVKISPQSAAPPSPSQKMRLIKTISGKISPKSVVYSGNGLFFAQNMMYNHTITVYDRNYELVKVIPDEVDLSKYGHSRFKGKYRGAPVEASFSHNGKYAWISNYQMYGPGFNNPGSDKCHPSQKTDKSFLYRINTETLKIDRVIPVGSVPKFVATSTDENLILVSNWCSWDLSVVDINQNQEIKRIKLGPYPRGIVVDPASETAYVAVMGSYNIAKVNLRDFSVQWLRNIGSSPRHLNIDPAGKYLYASLNGEGKIAKISLPQGNLVKKIATGNAPRSMVLSANGQTLYVVNYGEDTVSKVRTSDMKVLQKVKVEPDPIGITYDPQTREVWVACYSGNIMIFQD” the protein production was “failed”. With “MDTLDGLKTVVAVVETNSFTAASDRLGISKALVSKYVGEVENQLGIRLFNRTTRQLALTDSGRRYYEEAIILLEQFSAMVDNVTGEQTAPRGLLRISAPVTFGEMRLAPLLPKFIALYPDLTVELVLTNGAIDMLEEGIDVRLRIGGVDDSNMIARHLTNFPLVLSASPNYAQTQGLPTTPEQLGEHHCIIDSNFRIGKQWPFISPKGRAETINVQSGLAVNSPQAVREIAIADGGIAMTPNFIVEDALADGRLLRVMPEYTTLEFGLFAIYPHRKYVARKVRCFIDFVLEQFSKK” the protein production was “failed”. With “MDTMDTLRAFLRVAELGSFTRAAETLGLPKASVSTAVQRLEASLGTQLLHRTTRRVQLTADGTAFYQRSRDLLDDMDELQGMFQRDHSQLRGRLRVDMSAGIARQFVIPALPAFLAQHPQLEIEISGTDRRVDLVREGFDCVLRVGTVEDTSLVGRPLGVLRIINVASAQYLAQRGVPQTLEDLAQHDLVHYVSTLGQRSPGFEYHDGAQYHWLPMRGPVTVNNGDAYLAAARAGLGIIQAPASPLQAHLDSGVLVEVLAQMAPEPMPVTLLYAQRRHLPQRVRLFMDWIAQVMAPHLEPHLP” the protein production was “failed”. With “MDTMRDRFAPVVSRLLDEDPRVVVVLAEIGKDGFTEARRRHPDRVINVGIREQLLVGAGAGLALTGLRPVLHTFASFLVERPFEQVKLDLGHQDVGAVLVSAAASFDWPAGGYTHMSPGDVALLDTLDGWTMHVPGHPDEAETLLRHAVAAGDDKVYVRLSVQSNARRRAVDGERFLTVREGRAGVVVAVGPLLDPVLEATEGLDVTVLYATTVRPFDAVALRRATETAGTDVVLVEPYLAGTSTAAANDALHDVPHRVLGLGVGRPELRRYGSVDEHMAAHGLDAGSLRQRIAEFAGAPARA” the protein production was “failed”. In the case of “MDTNNFTVKVEYVDADGAEIAPSDILTDYHYVSTPKDIPGYKLREIPHNATGNITDTGIIVRYIYLEHHHHHH”, the protein production is reported as “not failed”. For “MDTSLPSAILNNMVTATLILDDGLAIRYANPAAELLFSQSAKRIVEQSLSQLIQHASLDLALLTQPLQSGQSITDSDVTFVVDGRPLMLEVTVSPITWQRQLMLLVEMRKID”, the protein production was “not failed”. In the case of “MDVDVDVDVEMDMDMDMYVALVEVEVEVFLLRTQILTESRKGRMITNMKKPNGNVTNVCDRCGGNGHWFHTCRIPKYLVELYKQSLKQDGKNTETNLVYEKGEDDTTHMELDDFLTHDGNIDS”, the protein production is reported as “failed”. In the case of “MDVEDYITLFLSLWIIASALAVKSVDVFLTLTLIGLLITLEVGGLFLSKEQKENLQPLIEILLLVFAVIVVKKVYEVLSG”, the protein production is reported as “failed”. With “MDVLIFNSWHWWTHTSGLQPWDYMREGNQLYKDMNRLVAYYKGLNTWARWINNNIVPSRTQVFFQGVSPVHYDGREWNEPLKSCNGQTQPFMGQRYPGGLPLGWVVVNKVLSRIRKPVHLLDLTTLSEYRKDAHPSLYNGISKDLDCSHWCLPGLPDTWNLLLYSSLTS” the protein production was “failed”. With “MDVLIHLFVGLHIIGIAALLGGFLTQMKAMGRGTARFVPGMLHGALTMLVTGVALVGLNQADDHSVNTIKIGVKLALLIVILGLVYVKRDEEQVDKGLFGLVGLLTTANIFIAVLWT” the protein production was “failed”. With “MDVLRKQEILPQLPKLDKYERKSSCGNTWQGSLSETESWREKLRYLTDYRLERGRFDKDTDFLSTFQPKQNEVQRNNISFEFDSDKSSRKTDFPGILTERPVLLRTNQEPDVYGARLRELSAANAEGERNVFHEDKTSSSQSKLPSFEIFSAIGQKEDIPGYQGGCLRGETVLKTAAVASPQIADRNSRVSFHDGGILQPINSPTGFSQPRNDNNSYKTSSSEENLYSIRQLPWSEYARTRNYDCVEPSLGVSISDEQRRFGENALCMSVSQPMYEEPHPLVTLRSTEGLTQEQKQLRR” the protein production was “failed”. With “MDVSGQLNTETVGSSLRKIRSFSHYEKHDEVFHSDQSHIVVVHNGQLRVQTGDCTIDVVAGSGVFLSQGDYLLEYSPQGGNYHSSIIEFDNELVSQLLQKHSDLLMTLPKVDKLNSGLFSFGLNILIEQVLSGMKTLEEQSYPDAIMRLKYEEMLILLLHSQGGEVLYALLSQQTNRTSDRLRRFMEQHYLKEWKLTDYAQEFGASLTTFKELFNEHYGISPRAWISERRLLHAHKLLLTSKMSIVDVAMEAGFSSQSYFTQSYRRRFGTTPSKVRSGDEQVAIAN” the protein production was “failed”. In the case of “MDVTVSTDDGYRVNNLGLMSSRQNYMIFGGFVAIAGIIIVLVGEKFKPSANSVKCPYCAELISAEAVKCKHCGSDVTPSKTIVSADDAEASDRLADVNVKLIAGVVLAVFAAIIGAIIFHRQ”, the protein production is reported as “failed”. In the case of “MDWEERENPKRLVKTFAFPNFREALDFANRVGALAERENHHPRLTVEWGRVTVEWWTHSAGGVTEKDREMARLTDALLQR”, the protein production is reported as “not failed”. For “MDYFGLAAKYIPFVTLGLLPIMNPLSTVPLFLELTKRMSPERKHQQARRACLYALSILAVFLFIGNGIITLFGISLAGIRVAGGLIILVLAFRMLFSGEGEEASIETEATEIKRANLDFSFSPLAMPSLAGPGSIAVVMSYGSQIPDDALVFGHFIVICGISITVLIAYIALAGSAWIAKFLGEHGIQAVTKIMGFLLTCIAVQFIASGIRDFSQTL”, the protein production was “failed”. For “MDYSQYHVEQTQEITELVTRTFSKSEGVDEGTLIGALIKDLFATTDSDDMFIFVAKDNGKIVGSIFFTRLTFEIDTTAFLLCPVVIDTEYQNKGVGQTLINHGLEVLKQEGVELVFTYGEPKFYERVGFEIVSEEQFKSPIPLSYLYSWLAQSLNDEVLTYIPGRSKCVAALNNLRLW”, the protein production was “failed”. For “MDYTASYYTDEELAKLFKAAKGDPLELPIVLAAYYGLRRSEIIGLRWDAIDFNPDDPKITIQFTVTEVNFGDGQGNVIIEKEGTKSKASKRTLPLVKPIADLLLQKKKDIENNRRLCGSCYNDKYLDFVHVNEIGERMKPNYISQHFALLLEKHGLKKIRFHDLRHSCASLLYANGVSLKQIQEWLGHSDISTTANIYTHLDYNSKIATANAILPVLFDQLEHHHHHH”, the protein production was “failed”. For “MEAEVWEAEGYNLVLDSDLYDADGYDVPDPGLLTEKNELTFTEPSQVLPFLTSSQQWQSLTPRARARRLWLLLRTSLHEVVEKEKRAELRAARLTHGLEPLRRLEVAAGLRSVAQDPVGGRFVVLDGAGRLHLHKEDGWAQETLLAPVRLTGLVTVLGPLGAVGRFVGWGPAGLAILRPNLSLLWLSEQGVGRAPGWAPTCCLPVPDLRLLLVAEMNSSLALWQFRSGGRRLVLRGSALHPPPSPTGRLMRLAVAPVPPHHVLRCFAAYGSAVLTFDLHAWTLVDVRRDLHKTTISDLAYCEEVEAMVTASRDSTVKVWEADWQIRMVFVGHTGPVTAMTVLPNTTLVLSASQDGTLRTWDLQAAAQVGEVALGFWGQDKLSRRVGRLLAPVRPGWPVLSLCASSMQLWRVRELYSPLAQLPAKVLHVQVAPALPAPAHQSLPTRLVCACADGSVYLLSAATGRIVSSLLLEPEDCAAAVAYCLPREALWLLTRAGHLVRANAARCPMSVLHRVCPPPPPAPQPCCLHLYSHLTDLGGAFSSWEIVRQHWGELRCSSVACAWKNKNRYLPVVGHTDGTLSVLEWLSSKTVFQTEAHSPGPVVAIASTWNSIVSSGGDLTVKMWRVFPYAEESLSLLRTFSCCYPAVALCALGRRVTAGFEDPDSATYGLVQFGLGDSPRLDHRPQDDPTDHITGLCCCPTLKLYACSSLDCTVRIWTAENRLLRLLQLNGAPQALAFCSNSGDLVLALGSRLCLVSHRLYLPTSYLVKKMCRKAPDVVDDPPLPLMSQESLTSAQLQRLTNLHGAASLRSHAGLLSPPGGPPFPLWVGAWRCGALWS”, the protein production was “failed”. For “MEAKLQVGVLGFGTVGSGVIHILEEHQEKISQVTGYHISVKKVLVRDLEKNRRYETKGFELTTNPSDVLDDPEIAVVVEVMGSITTAREYILQALKAGKHVVTANKDLIALHGDELVAVAQANNCDLFYEASVAGGIPILRTIVNSLAADKIQKVMGIVNGTTNFMLTKMTTEKKSYEEVLAEAQALGFAESDPTNDVDGIDAARKMVIMTRLAFGMNVNLDNVETSGIRGISPEDIEVAYQLGYKIKLVGTAEETNGTVNVNVGPVLLPKAHPLAGVNYENNAVFVTGAAVGETMFYGPGAGELPTATSVVSDLITVAKNSRLGTNGNAFNSYKHETKHTPKEQVFSKYYLRLTMDDKTGTFLKLTQIFAEAGVGFDKILQQPYDDFTATVVIVTHSTSQAQLEQAITRVKNEPEMQMLAKYSVVEG”, the protein production was “not failed”. For “MEALKIALLGGGTVGSAFYNLVLERAEELSAFGVVPRFLGVLVRDPRKPRAIPQELLRAEPFDLLEADLVVEAMGGVEAPLRLVLPALEAGIPLITANKALLAEAWESLRPFAEEGLIYHEASVMAGTPALSFLETLRGSELLELHGILNGTTLYILQEMEKGRTYAEALLEAQRLGYAEADPTLDVEGIDAAHKLTLLARLLVDPGFPFAEVEAQGIARLTPEVLQKAEARGERVRLVASLFGEGGRWRAAVAPRRLPQDHPLARARGNALWVRARPLGEAFVTGPGAGGGATASGLFADLLRFLSGAPGHLPAPRARPPLEEGSPWPGVE”, the protein production was “failed”. With “MEALRLGFSPCPNDTFIFYALVHGRVESPVPLEPVLEDVETLNRWALEGRLPLTKLSYAAYAQVRDRYVALRSGGALGRGVGPLVVARGPLQALEGLRVAVPGRHTTAYFLLSLYAQGFVPVEVRYDRILPMVAQGEVEAGLIIHESRFTYPRYGLVQVVDLGAWWEERTGLPLPLGAILARRDLGEGLIRALDEAVRRSVAYALAHPEEALDYMRAHAQELSDEVIWAHVHTYVNAFSLDVGEEGERAVARLFAEAEARGLAAPSPRPLFV” the protein production was “not failed”. With “MEATKERMEKDQKKRVVTNEAGKAEDNTIRTIIRESIVEDRGSNDDDGNKDNDHGASKPEDILAFSRTVRKIDSSLE” the protein production was “failed”.
